Here are results for six molecules from PMC3581401 (The Journal of Biological Chemistry, 2013).

Where two headings read alike, the source gives them in different places.

The target in series [1] is ICAM-1 domains 1 to 5, Fc tag removed (human) (UniProt P05362). The experiment in a line: AUC.
The target of series [2] is ICAM-1 domains 1 to 5 fused to human IgG1 Fc (human) (UniProt P05362). The experiment in a line: SPR. A general note: In SPR one partner is held on a chip, and binding of the other changes the refractive index at the surface.
Chain of ICAM-1 domains 1 to 5 fused to human IgG1 Fc (human) (P05362 28-485): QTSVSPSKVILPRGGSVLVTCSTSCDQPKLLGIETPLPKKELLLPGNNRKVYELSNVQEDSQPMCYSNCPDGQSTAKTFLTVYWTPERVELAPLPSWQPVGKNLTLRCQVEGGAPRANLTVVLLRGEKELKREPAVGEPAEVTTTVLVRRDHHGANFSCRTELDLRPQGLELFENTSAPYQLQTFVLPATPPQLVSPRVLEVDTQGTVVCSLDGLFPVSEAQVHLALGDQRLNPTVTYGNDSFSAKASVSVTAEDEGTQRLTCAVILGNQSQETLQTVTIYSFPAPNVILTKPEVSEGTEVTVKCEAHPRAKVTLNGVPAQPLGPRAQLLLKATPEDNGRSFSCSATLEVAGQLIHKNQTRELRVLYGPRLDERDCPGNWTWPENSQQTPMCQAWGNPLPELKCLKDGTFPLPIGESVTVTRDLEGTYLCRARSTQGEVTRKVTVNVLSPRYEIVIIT
Series [3] deals with ICAM-1 domains 1 and 2 (human, UniProt P05362 28-212). Briefly: SAXS.
Chain of ICAM-1 domains 1 and 2 (P05362 28-212): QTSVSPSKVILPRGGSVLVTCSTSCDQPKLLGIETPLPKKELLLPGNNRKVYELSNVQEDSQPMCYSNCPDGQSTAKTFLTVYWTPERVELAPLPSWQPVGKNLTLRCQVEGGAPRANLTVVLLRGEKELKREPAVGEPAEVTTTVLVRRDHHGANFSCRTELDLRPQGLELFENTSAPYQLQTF
For series [4], the target named is ICAM-1 domains 1 to 5, Fc tag removed (human, UniProt P05362 28-485). The experiment in a line: AUC.
Chain of ICAM-1 domains 1 to 5, Fc tag removed (P05362 28-485): as the sequence (P05362 28-485) above
Series [5] concerns the molecule itself. The experiment in a line: AUC.
Series [6] concerns the target T1, ICAM-1 domains 1 to 5 fused to human IgG1 Fc (human, UniProt P05362 28-485). The experiment in a line: SPR.
In series [7] the target is T1, ICAM-1 domains 1 to 5 fused to human …. The experiment in a line: SPR. This is another data set of the same source.
The target is the same in series [8]. Briefly: SPR. This is another data set of the same source.

T1 sequence (P05362 28-485): as above
Chain of ICAM-1 domains 1 to 5, Fc tag removed (human) (P05362 28-485): as above

In the case of “IT4VAR13 ectodomain (PfEMP1 from the var13 gene of the P. falciparum IT4 isolate), A3R6S0 1-2691”, the stoichiometry N in series [1] and in series [2] was 1 each time.

With “IT4VAR16 DBLβ domain (domain or fragment)”, in series [2], the Kd (in general, the constant that tells how readily two partners part at equilibrium) was determined as 51.1 nM; the koff (in general, the first-order rate constant of dissociation) stood at 0.00208 s⁻¹; the kon (in general, the rate constant with which the complex forms) came to 41000 M⁻¹ s⁻¹.

In series [2], “IT4VAR27 DBLβ domain (domain or fragment)” returned a Kd of 6.5 nM, a koff of 0.00842 s⁻¹ and a kon of 130000 M⁻¹ s⁻¹.

In series [2], “IT4VAR31 DBLβ domain (domain or fragment)” had a Kd of 144 nM and a koff of 0.00145 s⁻¹.

With “IT4VAR41 DBLβ domain (domain or fragment)”, in series [2], the koff is 0.00831 s⁻¹ and the stoichiometry N (commonly the number of molecules, sites or subunits per partner or assembly) came to 1.09.

B1: IT4VAR13 DBLβ domain (domain or fragment, Plasmodium falciparum (IT4 isolate), UniProt A3R6S0 811-1201, looked up)
chain: ACTGKDGNNERFKIGTEWKIGEKVETTDTDAYIPPRRQHMCTSNLENLNVSWVTEDGKAIHSLLGDVQLAAKMDADEIIKRYKKHNTLTDPIQQKDQESICRAVRYSFADLGDIIRGRDLWEHGDQTKLQGHLQIIFGKIKEEIKKKHPGINGNDKYKGDEKNNPPYKQLREDWWEANRHQVWRAMQCELKNLKKSNGDCHYNSRGTPLDDYIPQRLRWMVEWAEWFCKMQSQEYDKLMKQCSQCMSKGGDCRKGDVNCTSCEQACEEYKKKIKKWEKQWNKIKDKYEELYLQAKIAFAGTSFGGGDRDYQQMVHFFKELQKVTGDTTLGDTTSPYSTAAGYIHQEGHVDECTEQTQFCKNRNGNTASGKEDDNYTFKDPPPKYANACKCD
For B1, the “stoichiometry N” value was 1 in series [3], 1 in series [4], 2 in series [5] and 1.16 in series [8]. In addition, the values for the Kd in series [6] and in series [7] were 2.8 nM and 2.6 nM, respectively. Besides, in series [7], the koff came out at 0.0009 s⁻¹. Further, the kon in series [7] amounted to 350000 M⁻¹ s⁻¹; in series [8] it was 35000 M⁻¹ s⁻¹.
